# B1: p1E4 (nucleic acid, listed as Homo Sapiens)
# DNA: AATTATATATTACATGTTTATTAAGAGCACAACTTTTATGTAAAATTTACATTTAATGAAAAAAATCAAAAATATTTACAAAATCTTGGAAGACAGATGTGCATTGTTCTAATTACAATCCAAAGTAGTAAATAACAATCCTTTAAAACTCACATTTATTAGAGTTGTGTTTACAAATTCTTGGTTAAAGAGGCAGCTACAAAGTTTACCACTATATATAAGCAAGAACCAGCTTGCTAGGTACATTTCCCATTGAAAATCTACTGGTCTCTTTTACACCATTAGTGGATTTTTAAATGGAAAAAAAAAATCAATATAAACTCATATGGCTTCAAAATTGTA
# modifications: EST array clone
# Key:
# [1] = test system: primary human cell cultures (11 cell types); experiment: Custom gene array, 11 human cell types in normoxia or hypoxia for 6 hr and 18 hr; assay type: cell-based;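 on mRNA expression level, #1 HY 18 hr: cell type #1 is adipocyte from subcutaneous adult adipose tissue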;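 on mRNA expression level, #1 HY 6 hr: cell type #1 is adipocyte from subcutaneous adult adipose tissue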;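 on mRNA expression level, #1 NO: cell type #1 is adipocyte from subcutaneous adult adipose tissue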;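 on mRNA expression level, #2 HY 18 hr: cell type #2 is fetal cardiomyocyte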;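 on mRNA expression level, #2 HY 6 hr: cell type #2 is fetal cardiomyocyte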;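 on mRNA expression level, #2 NO: cell type #2 is fetal cardiomyocyte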;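 on mRNA expression level, #3 HY 6 hr: cell type #3 is human umbilical vein endothelial cells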;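 on mRNA expression level, #3 NO: cell type #3 is human umbilical vein endothelial cells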;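 on mRNA expression level, #4 HY 18 hr: cell type #4 is adult dermal fibroblast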;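 on mRNA expression level, #4 HY 6 hr: cell type #4 is adult dermal fibroblast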;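 on mRNA expression level, #4 NO: cell type #4 is adult dermal fibroblast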;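 on mRNA expression level, #5 HY 6 hr: cell type #5 is adult hepatocyte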;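 on mRNA expression level, #5 NO: cell type #5 is adult hepatocyte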;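 on mRNA expression level, #6 HY 6 hr: cell type #6 is blood-derived macrophage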;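 on mRNA expression level, #6 NO: cell type #6 is blood-derived macrophage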
# In short: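 Eleven primary, unmodified human cell types (one non-primary neuronal type) held in normoxia or hypoxia for 6 hr and 18 hr. RNA hybridised to duplicate or triplicate custom arrays, normalised per array to reference genes. Expression given relative to each gene's median across all conditions.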
# [2] = test system: human breast and ovary tumors; experiment: Custom gene array, breast and ovary tumors versus normal adjacent tissue; details: Table 19
# In short: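 Tumor versus normal adjacent tissue from 5 patients (ovarian adenocarcinomas, invasive ductal breast carcinomas); for one patient, normal ovary came from a separate age-matched individual. Per-chip normalisation for labelling/hybridization, then per-gene values expressed relative to the gene's median across all samples; differences inferred within each patient.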
# human macrophages = experiment: Custom gene array, macrophages with no cytokines, IL-10 or LPS + IFN, in normoxia and hypoxia; assay type: cell-based; details: Table 16, referenced to median of the gene over 6 conditions
# In short: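 Cultured macrophages were left untreated or given IL-10 or LPS + IFN, each at 100 ng/ml final, for 6 hr under normoxia or hypoxia (0.1% oxygen). Six conditions in total.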
molecule,measurement,setting,value
B1,"mRNA expression level, #1 HY 6 hr","[1]; cell type #1, hypoxia 6 hr",0.51
same,"mRNA expression level, #1 HY 18 hr","[1]; cell type #1, hypoxia 18 hr",0.79
same,"mRNA expression level, #1 NO","[1]; cell type #1, normoxia",0.65
same,"mRNA expression level, #2 HY 6 hr","[1]; cell type #2, hypoxia 6 hr",1.24
same,"mRNA expression level, #2 HY 18 hr","[1]; cell type #2, hypoxia 18 hr",1.18
same,"mRNA expression level, #2 NO","[1]; cell type #2, normoxia",1.06
same,"mRNA expression level, #3 HY 6 hr","[1]; cell type #3, hypoxia 6 hr",1.57
same,"mRNA expression level, #3 HY 18 hr","[1]; cell type #3, hypoxia 18 hr",1.70
same,"mRNA expression level, #3 NO","[1]; cell type #3, normoxia",1.59
same,"mRNA expression level, #4 HY 6 hr","[1]; cell type #4, hypoxia 6 hr",0.76
same,"mRNA expression level, #4 HY 18 hr","[1]; cell type #4, hypoxia 18 hr",0.91
same,"mRNA expression level, #4 NO","[1]; cell type #4, normoxia",0.80
same,"mRNA expression level, #5 HY 6 hr","[1]; cell type #5, hypoxia 6 hr",0.39
same,"mRNA expression level, #5 NO","[1]; cell type #5, normoxia",0.34
same,"mRNA expression level, #6 HY 6 hr","[1]; cell type #6, hypoxia 6 hr",1.13
same,#6 HY 18 hr (mRNA expression level),"[1]; cell type #6, hypoxia 18 hr",1.21
same,"mRNA expression level, #6 NO","[1]; cell type #6, normoxia",0.97
same,#7 HY 6 hr (mRNA expression level),"[1]; cell type #7, hypoxia 6 hr",1.17
same,#7 HY 18 hr (mRNA expression level),"[1]; cell type #7, hypoxia 18 hr",0.82
same,#7 NO (mRNA expression level),"[1]; cell type #7, normoxia",1.65
same,#8 HY 6 hr (mRNA expression level),"[1]; cell type #8, hypoxia 6 hr",1.28
same,#8 HY 18 hr (mRNA expression level),"[1]; cell type #8, hypoxia 18 hr",1.71
same,#8 NO (mRNA expression level),"[1]; cell type #8, normoxia",0.74
same,#9 HY 6 hr (mRNA expression level),"[1]; cell type #9, hypoxia 6 hr",0.97
same,#9 HY 18 hr (mRNA expression level),"[1]; cell type #9, hypoxia 18 hr",0.93
same,#9 NO (mRNA expression level),"[1]; cell type #9, normoxia",0.95
same,#10 HY 6 hr (mRNA expression level),"[1]; cell type #10, hypoxia 6 hr",1.35
same,#10 HY 18 hr (mRNA expression level),"[1]; cell type #10, hypoxia 18 hr",1.44
same,#10 NO (mRNA expression level),"[1]; cell type #10, normoxia",0.78
same,#11 HY 6 hr (mRNA expression level),"[1]; cell type #11, hypoxia 6 hr",1.48
same,#11 HY 18 hr (mRNA expression level),"[1]; cell type #11, hypoxia 18 hr",1.35
same,#11 NO (mRNA expression level),"[1]; cell type #11, normoxia",1.30
same,HIGHEST FOLD CHANGE IN HYPOXIA (hr hypoxia + cell type),"[1]; hypoxia/normoxia induction ratio, 18 hr monocyte",2.31 (18 hr monocyte) fold
same,"gene expression level on custom gene array, Breast nor H","[2]; breast, normal adjacent tissue, patient H",1.00
same,"gene expression level on custom gene array, Breast nor K","[2]; breast, normal adjacent tissue, patient K",1.06
same,"gene expression level on custom gene array, Breast tum H","[2]; breast, tumor tissue, patient H",0.69
same,"gene expression level on custom gene array, Breast tum K","[2]; breast, tumor tissue, patient K",0.46
same,"gene expression level on custom gene array, Ovary nor E","[2]; ovary, normal adjacent tissue, patient E",1.30
same,"gene expression level on custom gene array, Ovary nor F","[2]; ovary, normal adjacent tissue, patient F",0.88
same,"gene expression level on custom gene array, Ovary nor G","[2]; ovary, normal adjacent tissue, patient G",0.70
same,"gene expression level on custom gene array, Ovary tum E","[2]; ovary, tumor tissue, patient E",1.67
same,"gene expression level on custom gene array, Ovary tum F","[2]; ovary, tumor tissue, patient F",0.65
same,"gene expression level on custom gene array, Ovary tum G","[2]; ovary, tumor tissue, patient G",0.17
same,mRNA EXPRESSION (experimental condition) #1,human macrophages; #1 no cytokines/normoxia,1.22
same,mRNA EXPRESSION (experimental condition) #2,human macrophages; #2 no cytokines/hypoxia,1.13
same,mRNA EXPRESSION (experimental condition) #3,human macrophages; #3 IL-10/normoxia,1.09
same,mRNA EXPRESSION (experimental condition) #4,human macrophages; #4 IL-10/hypoxia,0.96
same,mRNA EXPRESSION (experimental condition) #5,human macrophages; #5 LPS/IFN/normoxia,0.40
same,mRNA EXPRESSION (experimental condition) #6,human macrophages; #6 LPS/IFN/hypoxia,0.40

# Source: patent publication US20030203372A1, “Analysis method” (priority 2000, published 2003)
